The target of the assay is Pure recombinant PlmA (Synechococcus elongatus PCC7942). Kind of assay: SEC; 0.1 mg pure PlmA in 0.1 ml on Superdex 200 10/300 GL, 0.3 ml/min, 50 mM Hepes pH 7.5, 0.5 M NaCl, 1 mM 2-mercaptoethanol; calibrated with protein standards. In general terms: Size exclusion chromatography separates by hydrodynamic size, large species first.

Results on 1 substance are retold here after article PMC5083789.

In general, stoichiometry N refers to the number of molecules, sites or subunits per partner or assembly. For Pure recombinant PlmA (natural protein), the stoichiometry N is 2.
